Source: patent US20230220057A1 (STAIDSON BEIJING BIOPHARMACEUTICALS, published 2023)
Substitutions are numbered along the chain they refer to.

T1: NT3 (UniProt P20783 139-257)
T1 construct: also called neurotrophin-3
T1 sequence (looked up): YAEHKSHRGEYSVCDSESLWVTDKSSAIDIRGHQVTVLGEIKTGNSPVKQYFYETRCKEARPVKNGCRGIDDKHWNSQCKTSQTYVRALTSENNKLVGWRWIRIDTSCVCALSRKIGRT

T2: NT4 (UniProt P34130 81-210)
T2 construct: also called neurotrophin-4
T2 sequence (looked up): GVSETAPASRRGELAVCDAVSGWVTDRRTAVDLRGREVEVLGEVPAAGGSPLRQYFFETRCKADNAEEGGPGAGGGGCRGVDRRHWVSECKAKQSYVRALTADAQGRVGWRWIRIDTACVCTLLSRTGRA

T3: BDNF (UniProt P23560 129-247)
T3 construct: also called brain-derived neurotrophic factor
T3 sequence (looked up): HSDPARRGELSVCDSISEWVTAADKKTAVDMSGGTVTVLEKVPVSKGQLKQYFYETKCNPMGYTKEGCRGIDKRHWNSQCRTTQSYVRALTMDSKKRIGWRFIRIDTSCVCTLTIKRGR

B1: Ab6 (antibody, human IgG1, V domains shown)
VH: EVQLVQSGAEVKKPGATVKISCKVSGYTFITYWISWVQQAPGKGLEWMGAIDPSDSDARYSPSFQGRVTITADTSTDTAYMELSSLRSEDTAVYYCAKSDPGYSGYSLLYGFDSWGQGTLVTVSS
VL: DVVMTQSPLSLPVTLGQPASISCRSSQSLVQRNGNTYLSWFQQRPGQPPRLLIYQVSNRYSGVPDRFSGSGSGTDFTLKISRVEAEDVGVYYCGQGAHLPLTFGQGTKVEIK
B2: Ab44 (antibody, human IgG1, V domains shown)
VH: EVQLVQSGAEVKKPGESLKISCKGSGYSFITYWISWVRQMPGKGLEWMGAIDPSDSDARYSPSFQGQVTISADKSISTAYLQWSSLKASDTAMYYCAKSDPGYSGYSLLYGFDSWGQGTLVTVSS
VL: B1 VL with F41Y, P48S
B3: Ab36 (antibody, human IgG1, V domains shown)
VH: B1 VH with T74K
VL: B1 VL
B4: Ab44 Fab (Fab, V domains shown)
VH: B2 VH
VL: B1 VL with F41Y, P48S
B5: Ab47 Fab (Fab, V domains shown)
VH: B2 VH
VL: B1 VL with V2I, P48S
B6: Ab54 Fab (Fab, V domains shown)
VH: B2 VH with G24I
VL: B1 VL with F41Y, P48S
B7: Ab46 Fab (Fab, V domains shown)
VH: B2 VH
VL: B1 VL
B8: Ab16 (antibody, human IgG1, V domains shown)
VH: B1 VH with T28S
VL: B1 VL
B9: Ab55 (antibody, human IgG1, V domains shown)
VH: B2 VH with G24I
VL: B1 VL with F41Y
B10: Ab10 (antibody, human IgG1, V domains shown)
VH: B1 VH
VL: B1 VL with V2I
B11: Ab37 (antibody, human IgG1, V domains shown)
VH: B1 VH with T74K
VL: B1 VL with V2I, P48S
B12: Ab49 (antibody, human IgG1, V domains shown)
VH: B2 VH
VL: B1 VL with V2I, F41Y
B13: Ab59 (antibody, human IgG1, V domains shown)
VH: B2 VH with G24I
VL: B1 VL with V2I, F41Y
B14: Ab45 (antibody, human IgG1, V domains shown)
VH: B2 VH
VL: B1 VL with F41Y
B15: Ab42 (antibody, human IgG1, V domains shown)
VH: B2 VH
VL: B1 VL with V2I, S7T, L11S, F41Y, S72A
B16: Ab56 (antibody, human IgG1, V domains shown)
VH: B2 VH with G24I
VL: B1 VL
B17: Ab57 (antibody, human IgG1, V domains shown)
VH: B2 VH with G24I
VL: B1 VL with V2I, P48S
B18: Ab47 (antibody, human IgG1, V domains shown)
VH: B2 VH
VL: B1 VL with V2I, P48S
B19: Ab52 (antibody, human IgG1, V domains shown)
VH: B2 VH with G24I
VL: B1 VL with V2I, S7T, L11S, F41Y, S72A
B20: Ab58 (antibody, human IgG1, V domains shown)
VH: B2 VH with G24I
VL: B1 VL with V2I, F41Y, P48S
B21: Ab48 (antibody, human IgG1, V domains shown)
VH: B2 VH
VL: B1 VL with V2I, F41Y, P48S
B22: Ab60 (antibody, human IgG1, V domains shown)
VH: B2 VH with G24I
VL: B1 VL with V2I
B23: Ab46 (antibody, human IgG1, V domains shown)
VH: B2 VH
VL: B1 VL

These binders were tested against T1, NT3 (assay: ELISA).

**Q.** Does B1 bind?
**A.** no binding (tested: 100 µg/mL)

**Q.** Does B2 bind?
**A.** no binding (tested: 100 µg/mL)

**Q.** Does B3 bind?
**A.** no binding (tested: 100 µg/mL)

The binders below were run against T2, NT4 (assay: ELISA).

**Q.** Does B1 bind?
**A.** no binding (tested: 100 µg/mL)

**Q.** Does B2 bind?
**A.** no binding (tested: 100 µg/mL)

**Q.** Does B3 bind?
**A.** no binding (tested: 100 µg/mL)

These binders were tested against T3, BDNF (assay: ELISA).

**Q.** Does B1 bind?
**A.** no binding (tested: 100 µg/mL)

**Q.** Does B2 bind?
**A.** no binding (tested: 100 µg/mL)

**Q.** Does B3 bind?
**A.** no binding (tested: 100 µg/mL)

The binders below were run against T4, human NGF-Fc protein (human, UniProt P01138 122-241, limits assumed) (assay: BLI (Octet Red), human NGF-Fc captured on anti-human Fc sensors, Fab in solution).
T4 construct: not shown: human IgG1 Fc or IgG4 Fc
Method: FortéBio BioLayer Interferometry (BLI) technology was chosen as the method for affinity determination by using Octet Red system. NGF is a homodimer protein in its nature form. […] For the purpose of affinity measurement, monovalent Fab fragments of IgG were prepared using Fab preparation kit (Pierce).
After purification, the Fab concentration was determined by OD280 according to the extinction coefficient calculated based on its sequence. […] For each assay, an array of Fab concentrations from about 50 nM to less than 1 nM in kinetic buffer (PALL) were tested by NGF-Fc sensors with the association time of 300 seconds and dissociation time of 1200 seconds. The kinetic data were analyzed using program Data Analysis HT 10.0 according to the manual. All the tests were repeated at least twice in independent assays.

T4 sequence (P01138 122-241 limits assumed): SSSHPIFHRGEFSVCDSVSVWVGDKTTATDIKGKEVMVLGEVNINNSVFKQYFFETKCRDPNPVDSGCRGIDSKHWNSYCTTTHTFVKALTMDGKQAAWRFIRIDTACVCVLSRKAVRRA

**Q.** What does the source list for B4?
**A.** Kd: 0.704 nM; koff: 5.9e-05 s⁻¹; kon: 83800 M⁻¹ s⁻¹

**Q.** How did the Kd turn out when B5 was run?
**A.** 3.48 nM

**Q.** And the koff?
**A.** 0.000142 s⁻¹

**Q.** What about the kon of the same binder?
**A.** 40700 M⁻¹ s⁻¹

**Q.** What does the source list for B6?
**A.** Kd: 0.148 nM; koff: 4.43e-05 s⁻¹; kon: 300000 M⁻¹ s⁻¹

**Q.** Which results are given for B7?
**A.** Kd: 2.89 nM; koff: 0.000107 s⁻¹; kon: 37100 M⁻¹ s⁻¹

What follows are binders tested against human NGF (R&D system) (human, UniProt P01138 122-241) (assay: cell-based or functional assay).
Chain of human NGF (R&D system) (P01138 122-241 limits assumed): as above

**Q.** Which “TF1 Cell Proliferation Inhibition Assay IC50” value does the source give for B1 here?
**A.** 0.17 nM

**Q.** For B8, which “TF1 Cell Proliferation Inhibition Assay IC50” value is on record?
**A.** 0.3 nM

**Q.** With B3 as the binder, how does the “TF1 Cell Proliferation Inhibition Assay IC50” value read?
**A.** 0.234 nM

**Q.** With B9 as the binder, how does the “TF1 Cell Proliferation Inhibition Assay IC50” value read?
**A.** 0.184 nM

**Q.** B10 was tested. Which “TF1 Cell Proliferation Inhibition Assay IC50” value did it give?
**A.** 0.254 nM

**Q.** B11 was tested. Which “TF1 Cell Proliferation Inhibition Assay IC50” value did it give?
**A.** 0.257 nM

These binders were tested against recombinantly produced human-NGF (human, UniProt P01138 122-241, limits assumed) (assay: ELISA, human NGF coated, IgG titrated).
Method: NGF binding ELISA assay: In human NGF binding ELISA, Corning 3366 high binding 96 well plates were coated with recombinantly produced human-NGF at 1 μg per ml, 50 μl/well in 1×PBS, and incubated overnight at 4° C. The plates were washed and blocked with 250 μl of 1×PBS/1% BSA at least 30 minutes at room temperature. 50 μl of culture supernatants, after 1:1 diluted by the PBS/BSA diluent, or the purified antibodies diluted serially from a certain concentration with the diluent, were added per well, and incubated at 37° C. for 2 hours. After washing, a secondary antibody, goat anti-human IgG Fc AP (Southern biotech) was applied at a dilution of 1:3000 in PBS/BSA. The plates were incubated for 1 hour at RT and washed. After adding the PNPP substrate, the ODs at 405 nm were read.
NGF binding ELISA assay: NGF binding ELISA assay was performed as described in Example 1.

Chain of recombinantly produced human-NGF (P01138 122-241 limits assumed): as above

**Q.** How did the EC50 turn out when B1 was run?
**A.** 0.021 ng/mL

**Q.** For B2, which EC50 is on record?
**A.** 0.0129 ng/mL

**Q.** Which EC50 does the source give for B12 here?
**A.** 0.00957 ng/mL

**Q.** For B13, which EC50 is on record?
**A.** 0.0122 ng/mL

**Q.** With B14 as the binder, how does the EC50 read?
**A.** 0.0166 ng/mL

**Q.** For B15, which EC50 is on record?
**A.** 0.0132 ng/mL

**Q.** With B8 as the binder, how does the EC50 read?
**A.** 0.0173 ng/mL

**Q.** How did the EC50 turn out when B16 was run?
**A.** 0.0145 ng/mL

**Q.** How did the EC50 turn out when B17 was run?
**A.** 0.011 ng/mL

**Q.** For B3, which EC50 is on record?
**A.** 0.0218 ng/mL

**Q.** How did the EC50 turn out when B18 was run?
**A.** 0.00942 ng/mL

**Q.** With B19 as the binder, how does the EC50 read?
**A.** 0.0206 ng/mL

**Q.** How did the EC50 turn out when B20 was run?
**A.** 0.0153 ng/mL

**Q.** Which EC50 does the source give for B21 here?
**A.** 0.0156 ng/mL

**Q.** B22 was tested. Which EC50 did it give?
**A.** 0.00896 ng/mL

**Q.** B9 was tested. Which EC50 did it give?
**A.** 0.0185 ng/mL

**Q.** For B23, which EC50 is on record?
**A.** 0.0169 ng/mL

**Q.** For B10, which EC50 is on record?
**A.** 0.0134 ng/mL

**Q.** For B11, which EC50 is on record?
**A.** 0.0317 ng/mL

The binders below were run against T5, human NGF-Fc4 (IgG4-Fc) (human, UniProt P01138 122-241, limits assumed) (assay: competition ELISA: antibody pre-incubated with human NGF-Fc4, binding to coated TrkA-Fc).
T5 construct: not shown: human IgG4 Fc
Method: TrkA inhibition ELISA assay: The TrkA inhibition ELISA assay was designed to identify the anti-NGF antibodies that have the capability of blocking NGF binding to its receptor TrkA. In this assay, human TrkA-Fc (IgG1-Fc, Sinobiological) was coated at 1 μg/ml in the 96-well plates and incubated overnight at 4° C. Antibodies, from cell culture supernatants or after purified, in different dilutions, were pre-incubated with human NGF-Fc4 (IgG4-Fc) at a final concentration of 70 ng/mL for 2 hours in 37° C. A total of 50 μl of the reaction mixtures were then transferred into the TrkA-Fc coated 96-well plates and incubated in room temperature for 2 hours. After washing, a secondary mouse anti-human IgG4-AP (Southern biotech) was added at a dilution of 1:1000 After one hour in room temperature, the plates were washed, and after adding PNPP substrate, ODs at 405 nm were read.
TrkA inhibition ELISA assay: The optimized anti-NGF antibodies Ab4, Ab6, Ab10, Ab16, Ab36, Ab37, Ab44, Ab45, Ab46, Ab47, Ab48, Ab49, Ab52, Ab54, Ab55, Ab56, Ab57, Ab58, Ab59, Ab60, Ab61 and the reference antibody Tanezumab (Pfizer), a humanized antibody from mouse hybridoma were further analyzed for their abilities to block NGF binding to its receptor TrkA. TrkA inhibition assay was performed as described in Example 1.

T5 sequence (P01138 122-241 limits assumed): as above

**Q.** Which IC50 does the source give for B1 here?
**A.** 76.9 ng/mL

**Q.** For B2, which IC50 is on record?
**A.** 130 ng/mL

**Q.** How did the IC50 turn out when B12 was run?
**A.** 87.8 ng/mL

**Q.** With B13 as the binder, how does the IC50 read?
**A.** 74.7 ng/mL

**Q.** With B14 as the binder, how does the IC50 read?
**A.** 89.8 ng/mL

**Q.** B15 was tested. Which IC50 did it give?
**A.** 77.3 ng/mL

**Q.** How did the IC50 turn out when B8 was run?
**A.** 73.5 ng/mL

**Q.** How did the IC50 turn out when B16 was run?
**A.** 66.5 ng/mL

**Q.** B17 was tested. Which IC50 did it give?
**A.** 73.2 ng/mL

**Q.** B3 was tested. Which IC50 did it give?
**A.** 89.9 ng/mL

**Q.** Which IC50 does the source give for B18 here?
**A.** 66.2 ng/mL

**Q.** How did the IC50 turn out when B19 was run?
**A.** 70.2 ng/mL

**Q.** Which IC50 does the source give for B20 here?
**A.** 80 ng/mL

**Q.** Which IC50 does the source give for B21 here?
**A.** 93.5 ng/mL

**Q.** Which IC50 does the source give for B22 here?
**A.** 43.4 ng/mL

**Q.** How did the IC50 turn out when B9 was run?
**A.** 75.7 ng/mL

**Q.** For B23, which IC50 is on record?
**A.** 53.3 ng/mL

**Q.** Which IC50 does the source give for B10 here?
**A.** 80.4 ng/mL

**Q.** With B11 as the binder, how does the IC50 read?
**A.** 132 ng/mL
